Changes are numbered by the printed parent chain. Names and notes keep the numbering of the source.
B1: PpOngB (Pseudoalteromonas prydzensis) (protein)
chain: MQYDISQPVDTIIYQAKVFDGLGNAPVHMDVAIKGQQIVALGELSAYQATEEVNADGLCLAPGFIDVHTHDDLEVLRNPEMAAKISQGVTTVITGNCGISAAPAELANDAPDPMNLLGEKAEFKFAQLRDYIDAYKVQKANVNVAALVGHTTLRNNVMADLLRPATAAEITLMQQQLDLALSQGALGLSTGLAYKNANQAPSSEVHAFGEVLKKHDALYTTHLRTEFDAVLDAMDEAFAMEQAFDIKVIISHLKCAGKNNWGRAPELLAKFSEQGEHSKCSCDAYPYAASSSTLDLNQVTDDFDIFITWSDSHPEMAEQLLADIAKQWGISLLDAAKQLQPAGAVYHGLNEDDVKTILAFDKTMIGSDGLPCDPHPHPRLWGSFPRVLGHYSREQGIFSLATAIHKMTGLSAANYRLANRGVIKVGHFADLVLFDADEIIDNATFVESALPASGIHQVWTNGQTTFKDKRVLPAYSGQFLTSLGASKHD
notes: pET-22b, His tag; E. coli BL21(DE3); residues 7-482 seen in crystal; one Zn
B2: PpOngB (Pseudoalteromonas prydzensis; Q298N) (protein)
chain: B1 chain with Q298N
notes: as for B1
B3: PpOngB (Pseudoalteromonas prydzensis; Q298A) (protein)
chain: B1 chain with Q298A
notes: as for B1
B4: PpOngB (Pseudoalteromonas prydzensis; S292T) (protein)
chain: B1 chain with S292T
notes: as for B1
B5: PfOngB (Pseudoalteromonas maricaloris) (protein)
chain: MLSSSPYVDTLIQGATVYFEPDSEAQVVDVAISKDKIVALGNCSHLQALQCIDATGLVLAPGFIDVHTHDDLEVLRGPYMLSKVSQGVTTVIAGNCGISAVPYCADQAPLDPINLLGEQSEFAYRELQDYQHAFSKAAPSVNLATLVGHTTLRAQVMTDLSQAANAQELEQMKTLLHQAMAQGAIGFSTGLAYYNAKGASQAEVNALAEVVTPFDGIYTTHLRTEFQGVIRAMDEAFATAEHAKLPLVISHIKCAGRENWGRAPEVLAHFELHRKTHPVSCDCYPYAASSSTLDLNQVTEETDIFITWSESHPELAQQSLANIATQWQVSQRDAAKRLQPAGAVYHCMLEDDVQRFVSYEHSMVGSDGLPCDPHPHPRLWGTFPRVLGHYCREQQSLPLALAIHKMTALPAARFKLRQRGNIQIGYFADLVLFDPNRVLDQASYSNPKQLASGIVKVWVNGKLSYVEGANADTIVDFGRAGRFLTRQN
notes: recombinant, cloned like PpOngB (pET-22b, His tag)

How the values were obtained:
PpOngB = molecular target: T1, PpOngB (Pseudoalteromonas prydzensis, UniProt Z9WEX2YQL1, D368A); experiment: X-ray crystal structure, […] Å; assay type: binding; conditions: inactive mutant cocrystallised; active site, open-chain aldonic acid coordinating zinc
T1 construct: pET-22b, His tag; E. coli BL21(DE3); residues 7-482 seen in crystal; one Zn
T1 sequence (Z9WEX2YQL1 1-489 D368A): B1 chain with D368A

BbDam = molecular target: T2, BbDam (Bordetella bronchiseptica, UniProt A0A0H3LXD5); experiment: deacetylase activity assay; assay type: biochemical; conditions: 10 mM substrate, 50 mM Hepes pH 8.0, 30 °C
T2 construct: gene BB3285

AfDam = molecular target: T3, AfDam (Alcaligenes faecalis, UniProt Q9AGH8); experiment: deacetylase activity assay; assay type: biochemical; conditions: 10 mM substrate, 10 mM Bis-Tris pH 7.0, 40 °C
T3 sequence (Q9AGH8 1-484): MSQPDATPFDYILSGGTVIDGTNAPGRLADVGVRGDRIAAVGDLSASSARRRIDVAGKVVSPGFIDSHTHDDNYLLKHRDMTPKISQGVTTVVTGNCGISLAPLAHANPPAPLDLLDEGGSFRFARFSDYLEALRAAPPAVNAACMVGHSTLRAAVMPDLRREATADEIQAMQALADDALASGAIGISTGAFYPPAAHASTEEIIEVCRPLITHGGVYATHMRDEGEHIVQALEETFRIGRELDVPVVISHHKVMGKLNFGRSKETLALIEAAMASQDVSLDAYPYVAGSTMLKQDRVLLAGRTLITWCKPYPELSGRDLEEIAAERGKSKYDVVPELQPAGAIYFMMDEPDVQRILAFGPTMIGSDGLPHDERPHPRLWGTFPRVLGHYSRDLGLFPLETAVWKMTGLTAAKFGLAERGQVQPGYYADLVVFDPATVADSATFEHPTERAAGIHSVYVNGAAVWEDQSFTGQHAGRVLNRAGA

[1] = system: CC(=O)N[C@@H](C(=O)O)[C@@H](O)[C@H](O)[C@H](O)CO; experiment: purified protein; conditions: 10 mM Bis-Tris pH 7.5, 30 °C, 2-120 mM substrate, Zn enzyme
Description: ninhydrin assay of primary amine, Michaelis-Menten fit on PaOngB

[2] = substrate: CC(=O)N[C@@H](C(=O)O)[C@@H](O)[C@H](O)[C@H](O)CO; experiment: ninhydrin assay of primary amine, Michaelis-Menten fit; assay type: biochemical, Pseudoalteromonas prydzensis; conditions: 10 mM Bis-Tris pH 7.5, 30 °C, 2-120 mM substrate, Zn enzyme
Description: ninhydrin assay of primary amine, Michaelis-Menten fit on PpOngB

[3] = substrate: CC(=O)N[C@@H](C(=O)O)[C@@H](O)[C@H](O)[C@H](O)CO; experiment: as above; assay type: biochemical, Pseudoalteromonas maricaloris; conditions: 10 mM Bis-Tris pH 7.5, 30 °C, 2-120 mM substrate, Zn enzyme
Description: ninhydrin assay of primary amine, Michaelis-Menten fit on PfOngB

T2 sequence (A0A0H3LXD5 entry or part of it): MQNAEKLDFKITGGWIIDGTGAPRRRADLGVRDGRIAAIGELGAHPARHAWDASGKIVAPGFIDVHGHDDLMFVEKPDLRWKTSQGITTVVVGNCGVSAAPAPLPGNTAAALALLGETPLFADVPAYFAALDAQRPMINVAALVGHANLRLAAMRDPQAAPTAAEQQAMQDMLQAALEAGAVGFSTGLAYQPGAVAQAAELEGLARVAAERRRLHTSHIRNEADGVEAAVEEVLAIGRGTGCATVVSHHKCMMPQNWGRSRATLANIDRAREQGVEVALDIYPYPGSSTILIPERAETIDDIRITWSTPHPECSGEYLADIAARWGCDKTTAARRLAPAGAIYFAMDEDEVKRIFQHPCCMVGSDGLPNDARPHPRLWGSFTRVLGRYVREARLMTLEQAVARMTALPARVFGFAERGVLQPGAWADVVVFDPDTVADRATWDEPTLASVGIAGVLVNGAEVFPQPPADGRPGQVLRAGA

| Molecule | Km [2] [mM] | Vmax [2] [µmol/min/mg] | kcat [2] [s⁻¹] | also measured |
| --- | --- | --- | --- | --- |
| CC(=O)N[C@@H](C(=O)O)[C@@H](O)[C@H](O)[C@H](O)CO [GlcNAc1A, 2-(acetylamino)-2-deoxy-D-gluconic acid] |  |  |  | X-ray crystal structure, 2.29 Å (PpOngB): crystal structure of PpOngB in complex with GlcNAc1A (the PpOngB-GlcNAc1A complex) |
| CC(=O)N[C@H](CCC(=O)O)C(=O)O [N-acetyl-D-glutamate] |  |  |  | deacetylase activity assay (BbDam): enzymatic activities of BbDam and its mutants |
| CSCC[C@@H](NC(C)=O)C(=O)O [N-acetyl-D-methionine] |  |  |  | deacetylase activity assay (AfDam): enzymatic activities of AfDam and its mutants |
| PaOngB (Pseudoalteromonas arabiensis) |  |  |  | Km [1]: 9.1 ± 0.8 mM; Vmax [1]: 6.3 µmol/min/mg; kcat [1]: 5.5 ± 0.3 s⁻¹; kcat/Km [1]: 600 M⁻¹ s⁻¹ |
| B1 | 9.8 ± 0.8 | 17.4 | 15.4 ± 1.3 | kcat/Km [2]: 1600 M⁻¹ s⁻¹ |
| B2 | 53.4 ± 2.5 | 9.4 | 8.3 ± 0.3 |  |
| B3 | 59.7 ± 5.0 | 7.7 | 6.8 ± 0.6 |  |
| B4 | 54.2 ± 1.8 | 1.3 | 1.1 ± 0.1 |  |
| B5 |  |  |  | Km [3]: 17.2 ± 1.0 mM; Vmax [3]: 13.4 µmol/min/mg; kcat [3]: 11.9 ± 0.7 s⁻¹; kcat/Km [3]: 700 M⁻¹ s⁻¹ |

From article PMC12017989, “Carbohydrate deacetylase, a key enzyme in oxidative chitin degradation, is evolutionarily linked to amino acid deacetylase [drawing 1]” (The Journal of Biological Chemistry, 2025)
